What was measured:
[1] = Confocal: 4F2hc membrane expression, colocalization with xCT; conditions: glycan lost; control: WT 4F2hc reconstitution
[2] = Western blot, shSLC3A2 PANC-1; conditions: glycan lost
[3] = Flow cytometry, shSLC3A2 MIA PaCa-2; conditions: glycan lost; control: WT 4F2hc reconstitution in shSLC3A2 MIA PaCa-2
[4] = CHX chase, 4F2hc remaining by western blot
[5] = Confocal: membrane colocalization of 4F2hc and xCT; conditions: glycan lost; control: no tunicamycin
[6] = Confocal and flow cytometry, PANC-1; conditions: glycan lost; control: no PNGase F
[7] = Western blot, PANC-1, BxPC-3, MIA PaCa-2; conditions: glycan changed form; control: Cas9Control cells

B1: 4F2hc (CD98hc): N365Q (protein)
parent chain: MELQPPEASIAVVSIPRQLPGSHSEAGVQGLSAGDDSELGSHCVAQTGLELLASGDPLPSASQNAEMIETGSDCVTQAGLQLLASSDPPALASKNAEVTGTMSQDTEVDMKEVELNELEPEKQPMNAASGAAMSLAGAEKNGLVKIKVAEDEAEAAAAAKFTGLSKEELLKVAGSPGWVRTRWALLLLFWLGWLGMLAGAVVIIVRAPRCRELPAQKWWHTGALYRIGDLQAFQGHGAGNLAGLKGRLDYLSSLKVKGLVLGPIHKNQKDDVAQTDLLQIDPNFGSKEDFDSLLQSAKKKSIRVILDLTPNYRGENSWFSTQVDTVATKVKDALEFWLQAGVDGFQVRDIENLKDASSFLAEWQNITKGFSEDRLLIAGTNSSDLQQILSLLESNKDLLLTSSYLSDSGSTGEHTKSLVTQYLNATGNRWCSWSLSQARLLTSFLPAQLLRLYQLMLFTLPGTPVFSYGDEIGLDAAALPGQPMEAPVMLWDESSFPDIPGAVSANMTVKGQSEDPGSLLSLFRRLSDQRSKERSLLHGDFHAFSAGPGLFSYIRHWDQNERFLVVLNFGDVGLSAGLQASDLPASASLPAKADLLLSTQPGREEGSPLELERLKLEPHEGLLLRFPYAA
For B1, the localisation_or_trafficking [1] was “decreases”, the “other: protein levels of xCT, GPX4, B3GNT3” value [2] was “decreases” and the “other: membrane expression of partner xCT” value [3] was “decreases”. For the same protein, the degradation_or_half_life ([4]; glycan lost) was “decreases”.

B2: 4F2hc (CD98hc): 4NQ (protein)
parent chain: MELQPPEASIAVVSIPRQLPGSHSEAGVQGLSAGDDSELGSHCVAQTGLELLASGDPLPSASQNAEMIETGSDCVTQAGLQLLASSDPPALASKNAEVTGTMSQDTEVDMKEVELNELEPEKQPMNAASGAAMSLAGAEKNGLVKIKVAEDEAEAAAAAKFTGLSKEELLKVAGSPGWVRTRWALLLLFWLGWLGMLAGAVVIIVRAPRCRELPAQKWWHTGALYRIGDLQAFQGHGAGNLAGLKGRLDYLSSLKVKGLVLGPIHKNQKDDVAQTDLLQIDPNFGSKEDFDSLLQSAKKKSIRVILDLTPNYRGENSWFSTQVDTVATKVKDALEFWLQAGVDGFQVRDIENLKDASSFLAEWQNITKGFSEDRLLIAGTNSSDLQQILSLLESNKDLLLTSSYLSDSGSTGEHTKSLVTQYLNATGNRWCSWSLSQARLLTSFLPAQLLRLYQLMLFTLPGTPVFSYGDEIGLDAAALPGQPMEAPVMLWDESSFPDIPGAVSANMTVKGQSEDPGSLLSLFRRLSDQRSKERSLLHGDFHAFSAGPGLFSYIRHWDQNERFLVVLNFGDVGLSAGLQASDLPASASLPAKADLLLSTQPGREEGSPLELERLKLEPHEGLLLRFPYAA
In the case of B2, the localisation_or_trafficking [1] is reported as “decreases”, the “other: protein levels of xCT, GPX4, B3GNT3” value [2] is reported as “decreases” and the “other: membrane expression of partner xCT” value [3] is reported as “decreases”. For the same protein, the degradation_or_half_life ([4]; glycan lost) was “decreases”.

B3: 4F2hc (CD98hc): tunicamycin (TM) (protein)
parent chain: MELQPPEASIAVVSIPRQLPGSHSEAGVQGLSAGDDSELGSHCVAQTGLELLASGDPLPSASQNAEMIETGSDCVTQAGLQLLASSDPPALASKNAEVTGTMSQDTEVDMKEVELNELEPEKQPMNAASGAAMSLAGAEKNGLVKIKVAEDEAEAAAAAKFTGLSKEELLKVAGSPGWVRTRWALLLLFWLGWLGMLAGAVVIIVRAPRCRELPAQKWWHTGALYRIGDLQAFQGHGAGNLAGLKGRLDYLSSLKVKGLVLGPIHKNQKDDVAQTDLLQIDPNFGSKEDFDSLLQSAKKKSIRVILDLTPNYRGENSWFSTQVDTVATKVKDALEFWLQAGVDGFQVRDIENLKDASSFLAEWQNITKGFSEDRLLIAGTNSSDLQQILSLLESNKDLLLTSSYLSDSGSTGEHTKSLVTQYLNATGNRWCSWSLSQARLLTSFLPAQLLRLYQLMLFTLPGTPVFSYGDEIGLDAAALPGQPMEAPVMLWDESSFPDIPGAVSANMTVKGQSEDPGSLLSLFRRLSDQRSKERSLLHGDFHAFSAGPGLFSYIRHWDQNERFLVVLNFGDVGLSAGLQASDLPASASLPAKADLLLSTQPGREEGSPLELERLKLEPHEGLLLRFPYAA
With B3 the localisation_or_trafficking [5] was “decreases” and the degradation_or_half_life ([4]; glycan lost, control: no tunicamycin) was “decreases”.

B4: 4F2hc (CD98hc): PNGase F (protein)
parent chain: MELQPPEASIAVVSIPRQLPGSHSEAGVQGLSAGDDSELGSHCVAQTGLELLASGDPLPSASQNAEMIETGSDCVTQAGLQLLASSDPPALASKNAEVTGTMSQDTEVDMKEVELNELEPEKQPMNAASGAAMSLAGAEKNGLVKIKVAEDEAEAAAAAKFTGLSKEELLKVAGSPGWVRTRWALLLLFWLGWLGMLAGAVVIIVRAPRCRELPAQKWWHTGALYRIGDLQAFQGHGAGNLAGLKGRLDYLSSLKVKGLVLGPIHKNQKDDVAQTDLLQIDPNFGSKEDFDSLLQSAKKKSIRVILDLTPNYRGENSWFSTQVDTVATKVKDALEFWLQAGVDGFQVRDIENLKDASSFLAEWQNITKGFSEDRLLIAGTNSSDLQQILSLLESNKDLLLTSSYLSDSGSTGEHTKSLVTQYLNATGNRWCSWSLSQARLLTSFLPAQLLRLYQLMLFTLPGTPVFSYGDEIGLDAAALPGQPMEAPVMLWDESSFPDIPGAVSANMTVKGQSEDPGSLLSLFRRLSDQRSKERSLLHGDFHAFSAGPGLFSYIRHWDQNERFLVVLNFGDVGLSAGLQASDLPASASLPAKADLLLSTQPGREEGSPLELERLKLEPHEGLLLRFPYAA
With B4 the localisation_or_trafficking [6] was “abolishes”.

B5: 4F2hc (CD98hc): B3GNT3KO (protein)
parent chain: MELQPPEASIAVVSIPRQLPGSHSEAGVQGLSAGDDSELGSHCVAQTGLELLASGDPLPSASQNAEMIETGSDCVTQAGLQLLASSDPPALASKNAEVTGTMSQDTEVDMKEVELNELEPEKQPMNAASGAAMSLAGAEKNGLVKIKVAEDEAEAAAAAKFTGLSKEELLKVAGSPGWVRTRWALLLLFWLGWLGMLAGAVVIIVRAPRCRELPAQKWWHTGALYRIGDLQAFQGHGAGNLAGLKGRLDYLSSLKVKGLVLGPIHKNQKDDVAQTDLLQIDPNFGSKEDFDSLLQSAKKKSIRVILDLTPNYRGENSWFSTQVDTVATKVKDALEFWLQAGVDGFQVRDIENLKDASSFLAEWQNITKGFSEDRLLIAGTNSSDLQQILSLLESNKDLLLTSSYLSDSGSTGEHTKSLVTQYLNATGNRWCSWSLSQARLLTSFLPAQLLRLYQLMLFTLPGTPVFSYGDEIGLDAAALPGQPMEAPVMLWDESSFPDIPGAVSANMTVKGQSEDPGSLLSLFRRLSDQRSKERSLLHGDFHAFSAGPGLFSYIRHWDQNERFLVVLNFGDVGLSAGLQASDLPASASLPAKADLLLSTQPGREEGSPLELERLKLEPHEGLLLRFPYAA
With B5 the expression_or_secretion [7] was “increases” and the degradation_or_half_life ([4]; glycan changed form, control: Cas9Control cells) was “decreases”.

B6: 4F2hc (CD98hc): 122-311del B3GNT3 (protein)
parent chain: MELQPPEASIAVVSIPRQLPGSHSEAGVQGLSAGDDSELGSHCVAQTGLELLASGDPLPSASQNAEMIETGSDCVTQAGLQLLASSDPPALASKNAEVTGTMSQDTEVDMKEVELNELEPEKQPMNAASGAAMSLAGAEKNGLVKIKVAEDEAEAAAAAKFTGLSKEELLKVAGSPGWVRTRWALLLLFWLGWLGMLAGAVVIIVRAPRCRELPAQKWWHTGALYRIGDLQAFQGHGAGNLAGLKGRLDYLSSLKVKGLVLGPIHKNQKDDVAQTDLLQIDPNFGSKEDFDSLLQSAKKKSIRVILDLTPNYRGENSWFSTQVDTVATKVKDALEFWLQAGVDGFQVRDIENLKDASSFLAEWQNITKGFSEDRLLIAGTNSSDLQQILSLLESNKDLLLTSSYLSDSGSTGEHTKSLVTQYLNATGNRWCSWSLSQARLLTSFLPAQLLRLYQLMLFTLPGTPVFSYGDEIGLDAAALPGQPMEAPVMLWDESSFPDIPGAVSANMTVKGQSEDPGSLLSLFRRLSDQRSKERSLLHGDFHAFSAGPGLFSYIRHWDQNERFLVVLNFGDVGLSAGLQASDLPASASLPAKADLLLSTQPGREEGSPLELERLKLEPHEGLLLRFPYAA
For B6, the degradation_or_half_life ([4]; glycan changed form, control: 122-311OE (active B3GNT3) in B3GNT3KO cells) was “decreases”.
